This data set in a line: protein stability index of a GFP-peptide fusion (GPS, HEK-293T) (PSI 1-6); higher = more stable.
Setting [1] is: treatment: DMSO, c terminus: a fixed tail appended.
The mark [2] stands for this setting: treatment: MLN4924 1 uM, 8 h, c terminus: a fixed tail appended.

± gives the standard deviation.
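Further: 24-mer peptide tiles fused after GFP, lentivirally expressed, FACS-sorted into six equal bins by GFP/DsRed ratio, decoded by Illumina sequencing, PSI is the read-weighted mean bin number.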

Take STSDSDLTCDSSTSSSDDDEEVSG [C18orf25]: the protein stability index was found to be 5.22 ± 0.21 under setting [1] and 5.28 ± 0.13 under setting [2].

In the case of YTGIVLLRCRKEFYQLVWSALPFI [POP5], the protein stability index reads like this: under setting [1], 3.12 ± 0.41; under setting [2], 3.05 ± 0.47.

Turning to DVTADSKVLEALKLKGAEVTYMNM [PLD5], the protein stability index reads like this: under setting [1], 3.57 ± 0.21; under setting [2], 3.44 ± 0.29.

Consider KAFSRSSGLFNHRGIHNIQKRYHC [ZSCAN9], for which the protein stability index reads like this: under setting [1], 2.63 ± 0.39; under setting [2], 2.45 ± 0.14.

Regarding FKKFIRRDFLLDEANGLLPDDKLT [SPOPL], the protein stability index by setting is: under setting [1], 2.27 ± 0.097; under setting [2], 2.41 ± 0.24.

For DYELEDETRPAKRITITESNMKSR [WEE1], the protein stability index runs as follows: under setting [1], 4.74 ± 0.35; under setting [2], 5.16 ± 0.29.

With CRGIPRGPVRPAIPPPLSSVYAWG [NEK8], the protein stability index was 2.3 ± 0.36 under setting [1] and 2.35 ± 0.43 under setting [2].

TKKRHTPRGHAESTSNRQPRKQG [SMOC2]: the protein stability index came to 2.59 ± 0.62 (treatment: DMSO, c terminus: native) and 3.3 ± 0.49 (treatment: MLN4924 1 uM, 8 h, c terminus: native).

On to IGGFTALHYAAMHGRARIARLMLE [ASB7], for which the protein stability index by setting is: under setting [1], 2.15 ± 0.23; under setting [2], 2.31 ± 0.22.

For KLSETFLQIYQYVPKDQRLQAIKA [DLC1], the protein stability index reads like this: under setting [1], 2.12 ± 0.38; under setting [2], 2.28 ± 0.44.

For the sequence ALRVLAEQNIIPSATNVTCYYQPA [TENT5C], the protein stability index was 2.31 ± 0.22 under setting [1] and 2.2 ± 0.089 under setting [2].

In turn, SGVGIDGEVLSYLELAQFHNAHQL [RHOBTB1] had a protein stability index under setting [1] of 2.56 ± 0.33 and a protein stability index under setting [2] of 2.67 ± 0.45.

Take GLFRKSGVKSRIQALRQMNEGAID [DLC1]: the protein stability index by setting is: under setting [1], 3.36 ± 0.1; under setting [2], 3.71 ± 0.12.

Sequence RTERVEQAFRAIDRGDYYLEGYRD [PCMTD1] had a protein stability index under setting [1] of 3.77 ± 0.17 and a protein stability index under setting [2] of 3.82 ± 0.17.

TALHIACYNGQDAVVNELIDYGAN [ANKRD44] had a protein stability index under setting [1] of 2.69 ± 0.27 and a protein stability index under setting [2] of 2.86 ± 0.24.

As to GQLTGGYKPNPQIYVKLIEECTDL [OAS1], the protein stability index under setting [1] turned out to be 2.99 ± 0.21 and the protein stability index under setting [2] worked out at 3.06 ± 0.093.

Regarding VIDGRNVTVTDVDIVFSKIKGKSC [TPPP], the protein stability index was found to be 2.6 ± 0.3 under setting [1] and 2.75 ± 0.41 under setting [2].

Turning to PVPPSEGKSRLSPAGEMKPMPLSE [BCL2L13], the protein stability index is, setting by setting: under setting [1], 5.13 ± 0.22; under setting [2], 5.08 ± 0.073.

As for PECTRCGHGIVGTIVKARDKLYHP [PDLIM4], the protein stability index is, setting by setting: under setting [1], 2.35 ± 0.13; under setting [2], 2.56 ± 0.21.

As to LKNIRHRPGGGRVKIESVKLDFKE [MAP2], the protein stability index by setting is: under setting [1], 3.22 ± 0.29; under setting [2], 3.52 ± 0.38.

MYFSQEEWELLDPTQKALYNDVMQ [ZNF75A]: the protein stability index by setting is: under setting [1], 3.67 ± 0.08; under setting [2], 3.74 ± 0.33.

Turning to RFEQEAVAVDSNLRVRELQRKVDG [CCDC89], the protein stability index by setting is: under setting [1], 4.98 ± 0.28; under setting [2], 4.9 ± 0.29.

Regarding QQCMLEILDTAGTEQFTAMRDLYM [RAP1B], the protein stability index is 2.53 ± 0.25 under setting [1] and 2.6 ± 0.2 under setting [2].

For the sequence DTERLDDFHLSIHSDMAAIVKAMA [DVL3], the protein stability index by setting is: under setting [1], 2.36 ± 0.2; under setting [2], 2.49 ± 0.25.

As for LQSGQEYVFFVLAVMEHAESKMYA [PTPRD], the protein stability index by setting is: under setting [1], 2.4 ± 0.63; under setting [2], 2.51 ± 0.75.

For the sequence FAVGYIKISWSTWGEMTLSLFSLL [SLC19A2], the protein stability index stood at 3.18 ± 0.6 under setting [1] and 3.15 ± 0.34 under setting [2].

Consider IVGFGLYGSIHGPTDYQVNIQIIE [BTBD1], for which the protein stability index is 2.63 ± 0.4 under setting [1] and 2.6 ± 0.47 under setting [2].

Regarding GKTWKQICDKHWTAKNSRVVCGMF [LOXL2], the protein stability index was found to be 2.06 ± 0.46 under setting [1] and 2.18 ± 0.46 under setting [2].

On to SFQNMNSKRKAETWKKNRRQLAYS [STK38L], for which the protein stability index under setting [1] turned out to be 3.23 ± 0.33 and the protein stability index under setting [2] is 3.33 ± 0.22.
